Results taken from paper PMC11600153, “Mg^2+-Ion Dependence Revealed for a BAHD 13-O-β-Aminoacyltransferase from Taxus Plants” (JACS Au, 2024).

Substrate: CC(C)=C[C@H](N)[C@@H](O)C(=O)O
Test: LC/ESI-MS/MS product quantification, Michaelis-Menten fit
Type: biochemical, Brevibacillus parabrevis
Conditions: 7 varied 0.05-1 mM, CoA 1 mM, ATP 1 mM, MgCl2, phosphate pH 8, 31 °C

B1: PheAT (truncated TycA module of tyrocidine synthase) (Brevibacillus parabrevis) (protein)
chain: MLANQANLIDNKRELEQHALVPYAQGKSIHQLFEEQAEAFPDRVAIVFENRRLSYQELNRKANQLARALLEKGVQTDSIVGVMMEKSIENVIAILAVLKAGGAYVPIDIEYPRDRIQYILQDSQTKIVLTQKSVSQLVHDVGYSGEVVVLDEEQLDARETANLHQPSKPTDLAYVIYTSGTTGKPKGTMLEHKGIANLQSFFQNSFGVTEQDRIGLFASMSFDASVWEMFMALLSGASLYILSKQTIHDFAAFEHYLSENELTIITLPPTYLTHLTPERITSLRIMITAGSASSAPLVNKWKDKLRYINAYGPTETSICATIWEAPSNQLSVQSVPIGKPIQNTHIYIVNEDLQLLPTGSEGELCIGGVGLARGYWNRPDLTAEKFVDNPFVPGEKMYRTGDLAKWLTDGTIEFLGRIDHQVKIRGHRIELGEIESVLLAHEHITEAVVIAREDQHAGQYLCAYYISQQEATPAQLRDYAAQKLPAYMLPSYFVKLDKMPLTPNDKIDRKALPEPDLTANQSQAAYHPPRTETESILVSIWQNVLGIEKIGIRDNFYSLGGDSIQAIQVVARLHSYQLKLETKDLLNYPTIEQVALFVKSTTRKSD
notes: truncated TycA (PheAT)
Which Km does the source give for B1 here?
Its Km is 112 µM.

And the kcat?
Its kcat is 0.0083 s⁻¹.
